# IntAct's records for PubMed 15165234
# B1: Nitrogen regulatory protein P-II (Synechococcus elongatus (strain PCC 7942)), P0A3F4 (parent)
# chain: MKKIEAIIRPFKLDEVKIALVNAGIVGMTVSEVRGFGRQKGQTERYRGSEYTVEFLQKLKLEIVVEDAQVDTVIDKIVAAARTGEIGDGKIFVSPVDQTIRIRTGEKNADAI
# partner: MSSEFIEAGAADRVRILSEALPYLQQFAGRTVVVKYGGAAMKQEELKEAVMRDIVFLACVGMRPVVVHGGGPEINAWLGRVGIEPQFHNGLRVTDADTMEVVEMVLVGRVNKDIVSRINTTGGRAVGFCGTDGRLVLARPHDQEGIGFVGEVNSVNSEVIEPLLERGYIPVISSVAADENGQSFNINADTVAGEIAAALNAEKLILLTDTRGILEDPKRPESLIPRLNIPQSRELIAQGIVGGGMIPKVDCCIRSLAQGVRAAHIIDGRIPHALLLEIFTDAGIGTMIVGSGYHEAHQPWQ
# Variants of: B1
# Details: with argb_syne7 argB
row,Variant,effect of a mutation on the interaction
1,S49A,decreasing interaction
2,S49E,decreasing interaction
